We go through 15 molecules from patent US20250333515A1.

Changes are numbered by the printed parent chain.

First the molecules themselves.
B1: Anti-CLL-1 Binder Clone 41 (scFv, not shown: small tags and cut ends)
scFv: QSVLTQPASVSGSLGQSITISCTGTSRDVGGYNFVSWYQQHPGKAPKLIIFDVTTRPSGLSDRFSASKSGNTASLTISGLQAEDEADYFCGSYTASDTMLFGGGTKLTVLGGGGSGGGGSGGGGSQVQLLESGGGVVQPGRSLRLSCAASGFTFDDYAMHWVRQAPGKGLEWVSGISWNSGSIGYADSVKGRFTVSRDNSKNTLYQQMNGLRAEDTAVYYCAREGRPTAFDYWGQGTTVTVSS
B2: Anti-CLL-1 Binder Clone 4 (scFv, not shown: small tags and cut ends)
scFv: QSVVTQPPSVSAAPGQKVTISCSGSSPNIGKNYVSWYQQLPGTAPKLLIYDNNKRPSGIPDRFSGSKSGTSATLGITGLQTGDEADYYCGTWDSSLSGYVFGTGTKVTVLGGGGSGGGGSGGGGSQVQLVESGGGVVQPGRSLRLSCAASGFTFSSYGMHWVRQAPGKGLEWVAFISHDGSNKYYADSVKGRSTISRDNSKSTLFLQMNSLRDEDTAVYFCAREGQLTTSWDFFDYWGHGTLVTVSS
B3: Anti-CLL-1 Binder Clone 10 (scFv, not shown: small tags and cut ends)
scFv: DIQMTQSPSFLSASVGDRVTITCRASQGISSYLAWYQQKPGKAPKLLIYSASSLQSGVPSRFSGSGSGTDFTLTISSLQPEDFATYYCQQSYNSPTFGQGTRLEIKGGGGSGGGGSGGGGSQVQLVQSGAEVKKPGASVKVSCKASGYTFTGYYMHWVRQAPGQGLEWMGWMNPNSGNTGYAQKFQGRVTMTRNTSISTAYLELTSLTSDDTAVYYCARGDTGDFFDHWGQGTLVTVSS
B4: Anti-CLL-1 Binder Clone 12 (scFv, not shown: small tags and cut ends)
scFv: DIQMTQSPSSLSASVGDRVTITCQASQDISNYLNWYQQKPGKAPKLLIYDASNLETGVPSRFSGSGSGTDFTLTISSPQPEDLATYYCQQANSFPFTFGQGTKVEIKGGGGSGGGGSGGGGSQVQLVQSGAEVKKPGSSVKVSCKASGYSFTRNDITWVRQANGRGLEWLGRLNPNNGDTVYAEVFQGRVAMTRDTSTDTAYMELASLKSDDTAVYFCARGFWSFDVWGQGTMVTVSS
B5: Anti-CLL-1 Binder Clone 6 (scFv, not shown: small tags and cut ends)
scFv: QSVLTQPPSVSAAPGQKVSIFCSGGSSNIGKNYVSWYQQLPGTAPKLLIYENQHRPSGIPDRFSGSKSGTSATLGITGLQTGDEADYYCATWDDSLSAGVFGGGTELTVLGGGGSGGGGSGGGGSQLVQSGAEVRKPGESLKISCKGSGYSFTSYWIGWVRQMPGKGLEWMGFIYPGDSDTRYSPSFQGQVTISADKSISTAYLQRSSLKASDTAMYYCARLGGYSGYDSEVFYLDYWGQGTTVTVSS
B6: Anti-CLL-1 Binder Clone 2 (scFv, not shown: small tags and cut ends)
scFv: QSVLTQPLSVSVALGQTARITCGGNNIGSKNVHWYQQKAGQAPVLVIQRDSNRPSGIPERFSGSNSGNTATLTISRAQAGDEADYFCQVWDSNTYVFGTGTKLTVLGGGGSGGGGSGGGGSEVQLVESGGGLVKPGGSLRLSCAASGFTFSDYYMSWIRQAPGKGLEWVSYISSSGSTIYYADSVKGRFTISRDNAKNSLYLQMNSLRDEDTAVYYCARQSAEIVGAFDHWGQGTMVTVSS
B7: Anti-CLL-1 Binder Clone 102 (VHH)
VHH: QVQLVQSGGGLVQPGGSLRLSCAASYFSFADYEMSWVRQAPGQRLEWVAVVSKDGNELYYADSVKGRFTISRDNSKNTLYLQMNTLRAEDTAVYYCVKDPYDFWSGYYSNWGQGTLVTVSS
B8: Anti-CLL-1 Binder Clone 95 (VHH)
VHH: QVQLVQSGGGLVQPGGSLRLSCAASAFDFDDSSMDWVRQAPGKALEWIGSISYFGSTYYNPSLKSRVTISRDNSKNTLYLQMNTLRAEDTATYYCTRSALYGDAAFDVWAQGTTVTVS
B9: Anti-CLL-1 Binder Clone 99 (VHH)
VHH: QVQLVQSGGGLVQPGGSLRLSCAASAFDFYSYEMSWVRQAPGKGLEWVSYIGPIGTDIGYADSVKGRFTISRDNSKNTLYLQMNTLRAEDTAMYYCAKDPYYDSTGLTSYWGQGTLVTVSS
B10: Anti-CLL-1 Binder Clone 98 (VHH)
VHH: QVQLVQSGGGLVQPGGSLRLSCAASDFYFDDYEMSWVRQAPGQRLEWVSLISSDGTTYYADSVKGRFTISRDNSKNTLYLQMNTLRAEDTALYYCVRTTDSWELDLWGRGTLVTVSS
B11: Anti-CLL-1 Binder Clone 97 (VHH)
VHH: QVQLVQSGGGLVQPGGSLRLSCAASDFDFDDDSMDWVRQAPGKGLEWIGSVLHDGATYYNPSLKSRVTISRDNSKNTLYLQMNTLRAEDTATYYCTRSALYGDAAFDVWAQGTMVTVSS
B12: Anti-CLL-1 Binder Clone 100 (VHH)
VHH: B11 VHH with G44A, L52S, H53Y, D54S, A56Q, Y58F, T92M
B13: Anti-CLL-1 Binder Clone 101 (VHH)
VHH: B11 VHH with D30A, G44A, V51I, L52F, H53Y, D54S, A56T, T92V
B14: Anti-CLL-1 Binder Clone 96 (VHH)
VHH: QVQLVQSGGGLVQPGGSLRLSCAASYFDFSYYEMSWVRQAPGKGLEWVSLMSGNGGSTYYADSVKGRFTISRDNSKNTLYLQMNTLRAEDTATYYCVAHSSTWFSWGQGTLVTVSS
B15: Anti-CLL-1 Binder Clone 94 (VHH)
VHH: QVQLVQSGGGLVQPGGSLRLSCAASYFDFAAYDMDWVRQAPGQRLEWVAKISHDGSYSWYADSVKGRFTISRDNSKNTLYLQMNTLRAEDTAVYYCVRGEGGSERADYWGRGTLVTVSS

In one assay the target is biotinylated recombinant human CLL-1 extracellular domain protein, isoform with glutamine at amino acid position 244 (human) (UniProt Q5QGZ9). As to the kind of experiment: BLItz, 1:1 model (Q244 per FIG. 12B).
biotinylated recombinant human CLL-1 extracellular domain protein, isoform with glutamine at amino acid position 244 (human), sequence (Q5QGZ9 65-265): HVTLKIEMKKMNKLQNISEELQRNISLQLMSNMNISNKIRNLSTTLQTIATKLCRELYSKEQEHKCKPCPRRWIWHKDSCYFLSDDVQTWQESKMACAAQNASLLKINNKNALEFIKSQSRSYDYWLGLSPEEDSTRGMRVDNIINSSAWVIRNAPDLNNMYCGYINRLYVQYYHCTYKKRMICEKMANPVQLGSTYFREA
Regarding B1, the Kd was 0.306 µM, the koff worked out at 0.032 s⁻¹ and the kon was found to be 100000 M⁻¹ s⁻¹.
For the molecule B2, the Kd came out at 0.013 µM, the koff is 0.00057 s⁻¹ and the kon was 43000 M⁻¹ s⁻¹.
The matching figures for B3: 0.021 µM, 0.0013 s⁻¹ and 62000 M⁻¹ s⁻¹.
With B4, the dissociation constant (Kd) came to 0.045 µM, the koff came to 0.0034 s⁻¹ and the kon was found to be 76000 M⁻¹ s⁻¹.
Take B5: the Kd stood at 0.011 µM, the koff amounted to 0.00029 s⁻¹ and the kon amounted to 27000 M⁻¹ s⁻¹.
Taken in the same sequence, the figures for B6 were 0.07 µM, 0.0033 s⁻¹ and 47000 M⁻¹ s⁻¹.

The target is the same in a further assay. The assay can be described thus: Blitz (CLL-1-Q244).
On to B1, for which the Kd was determined as 0.306 µM.
Turning to B2, the Kd was 0.013 µM.
Still for that read-out and setting: as for B3, the figure is 0.021 µM; as for B4, 0.045 µM.
B5: the Kd turned out to be 0.011 µM.
Same read-out and setting: as for B6, the figure is 0.07 µM.

A further assay deals with biotinylated recombinant human CLL-1 extracellular domain protein, isoform with lysine at amino acid position 244 (human) (UniProt Q5QGZ9). The assay can be described thus: EC50 table, CLL-1 K244; reciprocals of the ELISA bars of FIG. 8B.
biotinylated recombinant human CLL-1 extracellular domain protein, isoform with lysine at amino acid position 244 (human), sequence (Q5QGZ9 65-265): as above
Consider B7, for which the EC50 was 0.0026 µM.
With B8, the EC50 was 0.0051 µM.
The same measure, in the same setting: with B9 the figure was 0.093 µM.
As to B10, the EC50 worked out at 0.012 µM.
B11: the EC50 turned out to be 0.0013 µM.
Still for that read-out and setting: as for B12, the figure is 0.0006 µM; as for B13, 0.0048 µM.
Take B14: the EC50 came out at 0.0064 µM.

In the next assay the target is biotinylated recombinant human CLL-1 extracellular domain protein, isoform with glutamine at amino acid position 244 (human) (UniProt Q5QGZ9). The assay can be described thus: EC50 table, CLL-1 Q244; reciprocals of the ELISA bars of FIG. 8B. In general terms: ELISA stands for enzyme-linked immunosorbent assay.
Regarding B7, the EC50 worked out at 0.0025 µM.
Turning to B8, the EC50 stood at 0.0053 µM.
On the same count and under the same terms, with B9 the figure was 0.088 µM; with B10, 0.011 µM.
B15: the EC50 came out at 0.09 µM.
Still for that read-out and setting: as for B11, the figure is 0.0013 µM; as for B12, 0.00059 µM; as for B13, 0.0048 µM.
Still for that read-out and setting: with B14 the figure was 0.0064 µM.

The target is the same in a further assay. As to the kind of experiment: Exp 2 (= Blitz, CLL-1-Q244 of FIG. 12B).
B1: the Kd is 0.306 µM.
Still for that read-out and setting: with B2 the figure was 0.013 µM; with B3, 0.021 µM.
Take B4: the equilibrium dissociation constant (Kd) amounted to 0.045 µM.
The same measure, in the same setting: with B5 the figure was 0.011 µM.
Same read-out and setting: as for B6, the figure is 0.07 µM.

Another assay has as its target biotinylated recombinant human CLL-1 extracellular domain protein, isoform with lysine at amino acid position 244 (human) (UniProt Q5QGZ9). As to the kind of experiment: Exp 1 (= Octet, CLL-1-K244 of FIG. 12B). For orientation: In BLI a coated tip is dipped into the sample, and binding shifts an interference pattern.
As for B3, the Kd amounted to 0.00261 µM.
On to B5, for which the Kd is 0.00508 µM.

A further assay has the same target. The assay can be described thus: Octet (CLL-1-K244); variant: Both.
As to B3, the Kd was found to be 0.00261 µM.
On the same count and under the same terms, with B5 the figure was 0.00508 µM.

As a reminder, the Kd is the equilibrium constant for the complex coming apart. One may read the koff as a measure of how fast the partners let go of each other. Usually kon stands for a measure of how fast the partners come together. In general, EC50 refers to the concentration needed to bring the measured effect to its halfway point.
